Test results from the supplement of paper PMC11246515.
± gives the standard deviation of the averaged measurements.

Experiment: total protein half-life in vivo (active degradation + dilution); higher = more stable protein
[1] = E. coli NCM3722 delta-clpP delta-lon delta-hslV, growth: N-lim chemostat, doubling time 6 h
[2] = E. coli NCM3722 delta-clpP, growth: N-lim chemostat, doubling time 6 h
[3] = E. coli NCM3722 delta-hslV, growth: N-lim chemostat, doubling time 6 h
[4] = E. coli NCM3722 delta-lon, growth: N-lim chemostat, doubling time 6 h
[5] = E. coli NCM3722 delta-smpB, growth: N-lim chemostat, doubling time 6 h
[6] = wild type E. coli NCM3722, growth: C-lim chemostat, doubling time 3 h
[7] = wild type E. coli NCM3722, growth: C-lim chemostat, doubling time 6 h
[8] = wild type E. coli NCM3722, growth: C-lim chemostat, doubling time 12 h
[9] = wild type E. coli NCM3722, growth: N-lim chemostat, doubling time 6 h
[10] = wild type E. coli NCM3722, growth: N-lim chemostat, doubling time 12 h
[11] = wild type E. coli NCM3722, growth: P-lim chemostat, doubling time 6 h
[12] = wild type E. coli NCM3722, growth: P-lim chemostat, doubling time 12 h

Sequence | total protein half-life in vivo [1] | total protein half-life in vivo [2] | total protein half-life in vivo [3] | total protein half-life in vivo [4] | total protein half-life in vivo [5] | total protein half-life in vivo [6] | total protein half-life in vivo [7] | total protein half-life in vivo [8] | total protein half-life in vivo [9] | total protein half-life in vivo [10] | total protein half-life in vivo [11] | total protein half-life in vivo [12]
MAETKIVVGPQPFSVGEEYPWLAERDEDGAVVTFTGKVRNHNLGDSVNALTLEHYPGMTEKALAEIVDEARNRWPLGRVTVIHRIGELWPGDEIVFVGVTSAHRSSAFEAGQFIMDYLKTRAPFWKREATPEGDRWVEARESDQQAAKRW | 4.68 ± 0.7 h | 3.99 ± 0.26 h | 5.32 ± 0.47 h | 4.42 ± 0.088 h | 3.5 ± 0.33 h | 2.7 ± 0.15 h | 5.78 ± 0.33 h | 8.46 ± 0.13 h | 4.573 ± 0.012 h | 6.78 h | 6.8 ± 1.3 h | 11.1 ± 0.62 h
MANFFIRRPIFAWVLAIILMMAGALAILQLPVAQYPTIAPPAVSVSANYPGADAQTVQDTVTQVIEQNMNGIDNLMYMSSTSDSAGSVTITLTFQSGTDPDIAQVQVQNKLQLATPLLPQEVQQQGISVEKSSSSYLMVAGFVSDNPGTTQDDISDYVASNVKDTLSRLNGVGDVQLFGAQYAMRIWLDADLLNKYKLTPVDVINQLKVQNDQIAAGQLGGTPALPGQQLNASIIAQTRFKNPEEFGKVTLRVNSDGSVVRLKDVARVELGGENYNVIARINGKPAAGLGIKLATGANALDTAKAIKAKLAELQPFFPQGMKVLYPYDTTPFVQLSIHEVVKTLFEAIMLVFLVMYLFLQNMRATLIPTIAVPVVLLGTFAILAAFGYSINTLTMFGMVLAIGLLVDDAIVVVENVERVMMEDKLPPKEATEKSMSQIQGALVGIAMVLSAVFIPMAFFGGSTGAIYRQFSITIVSAMALSVLVALILTPALCATLLKPVSAEHHENKGGFFGWFNTTFDHSVNHYTNSVGKILGSTGRYLLIYALIVAGMVVLFLRLPSSFLPEEDQGVFLTMIQLPAGATQERTQKVLDQVTDYYLKNEKANVESVFTVNGFSFSGQAQNAGMAFVSLKPWEERNGDENSAEAVIHRAKMELGKIRDGFVIPFNMPAIVELGTATGFDFELIDQAGLGHDALTQARNQLLGMAAQHPASLVSVRPNGLEDTAQFKLEVDQEKAQALGVSLSDINQTISTALGGTYVNDFIDRGRVKKLYVQADAKFRMLPEDVDKLYVRSANGEMVPFSAFTTSHWVYGSPRLERYNGLPSMEIQGEAAPGTSSGDAMALMENLASKLPAGIGYDWTGMSYQERLSGNQAPALVAISFVVVFLCLAALYESWSIPVSVMLVVPLGIVGVLLAATLFNQKNDVYFMVGLLTTIGLSAKNAILIVEFAKDLMEKEGKGVVEATLMAVRMRLRPILMTSLAFILGVLPLAISNGAGSGAQNAVGIGVMGGMVSATLLAIFFVPVFFVVIRRCFKG |  |  | 5.63 h |  |  |  |  |  |  | 8.2 h |  | 
MKGLNKITCCLLAALLMPCAGHAENEQYGANFNNADIRQFVEIVGQHLGKTILIDPSVQGTISVRSNDTFSQQEYYQFFLSILDLYGYSVITLDNGFLKVVRSANVKTSPGMIADSSRPGVGDELVTRIVPLENVPARDLAPLLRQMMDAGSVGNVVHYEPSNVLILTGRASTINKLIEVIKRVDVIGTEKQQIIHLEYASAEDLAEILNQLISESHGKSQMPALLSAKIVADKRTNSLIISGPEKARQRITSLLKSLDVEESEEGNTRVYYLKYAKATNLVEVLTGVSEKLKDEKGNARKPSSSGAMDNVAITADEQTNSLVITADQSVQEKLATVIARLDIRRAQVLVEAIIVEVQDGNGLNLGVQWANKNVGAQQFTNTGLPIFNAAQGVADYKKNGGITSANPAWDMFSAYNGMAAGFFNGDWGVLLTALASNNKNDILATPSIVTLDNKLASFNVGQDVPVLSGSQTTSGDNVFNTVERKTVGTKLKVTPQVNEGDAVLLEIEQEVSSVDSSSNSTLGPTFNTRTIQNAVLVKTGETVVLGGLLDDFSKEQVSKVPLLGDIPLVGQLFRYTSTERAKRNLMVFIRPTIIRDDDVYRSLSKEKYTRYRQEQQQRIDGKSKALVGSEDLPVLDENTFNSHAPAPSSR | 2.53 h |  |  |  | 1.92 ± 0.044 h | 2.2 h |  |  |  |  |  | 
MLPPYFLFKEMTDTQYIGRFAPSPSGELHFGSLIAALGSYLQARARQGRWLVRIEDIDPPREVPGAAETILRQLEHYGLHWDGDVLWQSQRHDAYREALAWLHEQGLSYYCTCTRARIQSIGGIYDGHCRVLHHGPDNAAVRIRQQHPVTQFTDQLRGIIHADEKLAREDFIIHRRDGLFAYNLAVVVDDHFQGVTEIVRGADLIEPTVRQISLYQLFGWKVPDYIHLPLALNPQGAKLSKQNHAPALPKGDPRPVLIAALQFLGQQAEAHWQDFSVEQILQSAVKNWRLTAVPESAIVNSTFSNASC |  | 3.9 h |  | 5.27 h | 3.67 ± 0.12 h | 3.26 ± 0.7 h | 5.73 h | 3.64 h | 3.84 h |  | 4.7 h | 9.87 ± 0.39 h
MQPNDITFFQRFQDDILAGRKTITIRDESESHFKTGDVLRVGRFEDDGYFCTIEVTATSTVTLDTLTEKHAEQENMTLTELKKVIADIYPGQTQFYVIEFKCL |  | 5.77 ± 0.22 h | 5.77 ± 0.14 h | 6.02 ± 0.22 h | 6.22 ± 0.28 h | 3.49 ± 0.34 h | 5.2 ± 1.4 h | 10.4 ± 3.3 h | 6.12 ± 0.24 h | 11.3 ± 0.97 h | 6.47 ± 0.56 h | 14 ± 0.55 h
